Assay results from US20130064834A1 (published 2013).

T1: human PCSK7, myc-myc-his tagged (human, UniProt Q16549 142-667, limits assumed)
T1 construct: also called hPCSK7-mmh; hPCSK7
T1 sequence: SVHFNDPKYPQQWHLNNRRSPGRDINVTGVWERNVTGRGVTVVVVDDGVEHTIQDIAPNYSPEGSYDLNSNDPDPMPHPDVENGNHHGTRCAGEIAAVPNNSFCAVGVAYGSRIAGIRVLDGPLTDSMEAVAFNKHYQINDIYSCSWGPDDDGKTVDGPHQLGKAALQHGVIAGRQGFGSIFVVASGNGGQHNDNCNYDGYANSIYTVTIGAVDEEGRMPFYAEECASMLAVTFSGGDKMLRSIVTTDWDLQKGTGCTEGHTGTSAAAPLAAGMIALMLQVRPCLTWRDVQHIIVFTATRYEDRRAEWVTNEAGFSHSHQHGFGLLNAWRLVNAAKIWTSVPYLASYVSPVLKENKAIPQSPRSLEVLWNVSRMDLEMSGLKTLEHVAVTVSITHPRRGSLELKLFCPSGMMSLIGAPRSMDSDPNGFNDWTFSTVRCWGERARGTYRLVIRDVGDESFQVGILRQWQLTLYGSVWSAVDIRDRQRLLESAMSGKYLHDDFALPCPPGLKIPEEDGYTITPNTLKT

T2: Chimeric protein #3 (mPro-mCat-hC-term-mmh) (mouse; human)
T2 chain: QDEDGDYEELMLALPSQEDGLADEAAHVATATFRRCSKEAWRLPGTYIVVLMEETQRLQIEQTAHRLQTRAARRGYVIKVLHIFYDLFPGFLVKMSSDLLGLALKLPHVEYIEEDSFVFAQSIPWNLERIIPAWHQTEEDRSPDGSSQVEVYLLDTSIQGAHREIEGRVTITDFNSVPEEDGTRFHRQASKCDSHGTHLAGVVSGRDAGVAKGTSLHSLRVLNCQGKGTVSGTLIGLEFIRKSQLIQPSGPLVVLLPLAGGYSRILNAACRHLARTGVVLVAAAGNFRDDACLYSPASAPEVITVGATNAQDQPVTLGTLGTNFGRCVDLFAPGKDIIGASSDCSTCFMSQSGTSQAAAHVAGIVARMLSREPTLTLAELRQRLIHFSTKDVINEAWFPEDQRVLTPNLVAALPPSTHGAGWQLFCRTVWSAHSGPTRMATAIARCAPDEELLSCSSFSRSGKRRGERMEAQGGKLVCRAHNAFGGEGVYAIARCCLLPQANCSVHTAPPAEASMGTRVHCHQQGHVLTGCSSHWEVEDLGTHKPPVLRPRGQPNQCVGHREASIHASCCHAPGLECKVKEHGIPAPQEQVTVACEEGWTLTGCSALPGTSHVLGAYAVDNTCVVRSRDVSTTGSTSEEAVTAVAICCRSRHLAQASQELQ

T3: Chimeric protein #1 (mPro-hCat-mC-term-mmh) (mouse; human, UniProt Q80W65 35-694)
T3 chain: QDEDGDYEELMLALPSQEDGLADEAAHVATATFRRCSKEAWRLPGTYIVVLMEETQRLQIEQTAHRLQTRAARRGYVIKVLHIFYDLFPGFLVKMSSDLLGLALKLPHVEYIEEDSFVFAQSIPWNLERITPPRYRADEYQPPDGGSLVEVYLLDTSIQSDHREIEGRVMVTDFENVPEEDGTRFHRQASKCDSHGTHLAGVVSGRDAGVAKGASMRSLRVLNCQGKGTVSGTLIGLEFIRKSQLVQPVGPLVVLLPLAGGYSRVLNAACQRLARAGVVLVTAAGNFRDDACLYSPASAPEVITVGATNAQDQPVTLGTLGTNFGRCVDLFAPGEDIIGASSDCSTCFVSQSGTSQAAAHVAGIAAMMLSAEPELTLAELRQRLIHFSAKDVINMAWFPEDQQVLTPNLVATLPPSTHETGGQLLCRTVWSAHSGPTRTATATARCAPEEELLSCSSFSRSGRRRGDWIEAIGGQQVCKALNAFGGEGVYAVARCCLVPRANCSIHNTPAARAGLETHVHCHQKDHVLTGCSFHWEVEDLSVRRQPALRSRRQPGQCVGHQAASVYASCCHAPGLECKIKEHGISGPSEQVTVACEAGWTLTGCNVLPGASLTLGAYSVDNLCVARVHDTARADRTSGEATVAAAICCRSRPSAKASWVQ


Assays:
[1] = target: T1, human PCSK7, myc-myc-his tagged; test: ELISA, mAb coated
Human PCSK9-myc-myc-his [2] = target: T4, Human PCSK9-myc-myc-his (human, UniProt Q8NBP7 31-692); test: ELISA, mAb coated, 1.2 nM antigen;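 note: antigen allowed to bind for 1 h at room temperature, then captured protein revealed with an HRP-linked polyclonal anti-myc antibody and read as optical density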
T4 construct: also called hPCSK9-mmh; hPCSK9
Text: (§1) After 1 hr binding at RT, the plate was washed and bound test protein detected using HRP-conjugated anti-myc polyclonal antibody (++=OD>1.0; +=OD 0.4-1.0; −=OD<0.4).

[3] = target: T2, Chimeric protein #3 …; test: ELISA, mAb coated, 1.2 nM antigen;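 note: antigen allowed to bind for 1 h at room temperature, then captured protein revealed with an HRP-linked polyclonal anti-myc antibody and read as optical density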
Text: as §1

[4] = target: Chimeric protein #2 (hPro-mCat-mC-term-mmh) (human; mouse, UniProt Q80W65 19-694); test: ELISA, mAb coated, 1.2 nM antigen;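 note: antigen allowed to bind for 1 h at room temperature, then captured protein revealed with an HRP-linked polyclonal anti-myc antibody and read as optical density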
Text: as §1

[5] = target: T3, Chimeric protein #1 …; test: ELISA, mAb coated, 1.2 nM antigen;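 note: antigen allowed to bind for 1 h at room temperature, then captured protein revealed with an HRP-linked polyclonal anti-myc antibody and read as optical density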
Text: as §1

[6] = target: T5, mouse PCSK9, myc-myc-his tagged (mouse, UniProt Q80W65 35-694); test: ELISA, mAb coated, 1.2 nM antigen
T5 construct: also called mPCSK9-mmh; mPCSK9
Text: as §1

hPCSK9(D374Y)-mmh [7] = target: T6, hPCSK9(D374Y)-mmh (human, UniProt Q8NBP7 31-692); test: ELISA, mAb coated, 1.2 nM antigen
T6 construct: also called hPCSK(D374Y)-mmh
Text: as §1

Human PCSK9-myc-myc-his [8] = target: T4, Human PCSK9-myc-myc-his; test: SPR, mAb captured on anti-hFc, 25C
[9] = target: T7, tagged rhesus monkey (Macaca mulata) PCSK9 (rhesus monkey (Macaca mulata), UniProt A8T666 31-692); test: SPR, mAb captured on anti-hFc, 25C
T7 construct: also called mmPCSK9-mmh; mmPCSK9
T7 sequence (A8T666 31-692 limits assumed): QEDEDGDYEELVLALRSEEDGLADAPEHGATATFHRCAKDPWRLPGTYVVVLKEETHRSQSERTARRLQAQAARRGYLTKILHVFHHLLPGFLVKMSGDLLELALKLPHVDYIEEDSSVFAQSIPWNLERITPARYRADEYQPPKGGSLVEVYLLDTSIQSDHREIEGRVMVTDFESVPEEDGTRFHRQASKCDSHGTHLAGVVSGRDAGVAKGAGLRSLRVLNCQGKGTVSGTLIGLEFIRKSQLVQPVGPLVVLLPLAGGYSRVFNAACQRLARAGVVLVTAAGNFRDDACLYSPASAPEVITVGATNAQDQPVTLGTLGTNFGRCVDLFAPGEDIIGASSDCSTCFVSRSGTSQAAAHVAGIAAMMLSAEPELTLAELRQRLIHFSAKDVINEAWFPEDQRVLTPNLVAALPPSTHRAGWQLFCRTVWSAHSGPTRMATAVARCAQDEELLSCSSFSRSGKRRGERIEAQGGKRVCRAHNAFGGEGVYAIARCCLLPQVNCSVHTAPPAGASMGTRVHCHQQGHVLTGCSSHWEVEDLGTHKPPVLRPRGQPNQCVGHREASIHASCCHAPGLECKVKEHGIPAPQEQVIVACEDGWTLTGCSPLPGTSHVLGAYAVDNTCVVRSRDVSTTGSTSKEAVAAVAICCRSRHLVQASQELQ

[10] = target: T8, cynomolgus monkey (Macaca fascicularis) PCSK9, myc-myc-his tagged (cynomolgus monkey (Macaca fascicularis), UniProt A8T662 31-692 (Macaca nemestrina entry), limits assumed); test: SPR, mAb captured on anti-hFc, 25C
T8 construct: also called mfPCSK9-mmh; mfPCSK9
T8 sequence (A8T662 31-692 limits assumed): as the sequence (A8T666 31-692 limits assumed) above, with P607A, K639E counted along it

hPCSK9(D374Y)-mmh [11] = target: T6, hPCSK9(D374Y)-mmh; test: SPR, mAb captured on anti-hFc, 25C

Row | Binder | binding result [1] | OD (Human PCSK9-myc-myc-his [2]) [od] | OD [3] [od] | OD [4] [od] | OD [5] [od] | OD [6] [od] | OD (hPCSK9(D374Y)-mmh [7]) [od] | Kd (Human PCSK9-myc-myc-his [8]) [nM] | T1/2 (Human PCSK9-myc-myc-his [8]) [h] | Kd [9] [nM] | T1/2 [9] [h] | Kd [10] [nM] | T1/2 [10] [h] | Kd (hPCSK9(D374Y)-mmh [11]) [nM] | T1/2 (hPCSK9(D374Y)-mmh [11]) [h]
1 | H1H316P (antibody, V domains shown, Fully human mAb made in CHO cells; also called mAb316P) VH: EVQLVESGGGLVQPGGSLRLSCAASGFTFNNYAMNWVRQAPGKGLDWVSTISGSGGTTNYADSVKGRFIISRDSSKHTLYLQMNSLRAEDTAVYYCAKDSNWGNFDLWGRGTLVTVSS VL: not shown | no binding (tested: 1.2 nM) | > 1 | > 1 | > 1 | > 1 | > 1 | > 1 | – | – | – | – | – | – | – | –
2 | H1M300N (antibody, V domains shown, Fully human version made in CHO cells) VH: EMQLVESGGGLVQPGGSLRLSCAASGFTFSSHWMKWVRQAPGKGLEWVANINQDGSEKYYVDSVKGRFTISRDNAKNSLFLQMNSLRAEDTAVYYCARDIVLMVYDMDYYYYGMDVWGQGTTVTVSS VL: not shown | – | – | – | – | – | – | – | 0.74 | 1.83 | 0.61 | 1.32 | 1.5 | 0.75 | 0.9 | 1.08
